Tests used:
H358 cells [1] = assay: Immunofluorescence and confocal imaging of E-cadherin and vimentin in ligand-treated H358 cells; type: cell-based, human; settings: cells treated for 7 days
Procedure: Cells were plated on coverslips on experimental day 0, stimulated with ligand on day 1 and refreshed with medium and ligand on day 3-4. On day 7, cells were fixed at room temperature for 10 minutes in 4% paraformaldehyde (EMS #15701)/PBS (Gibco #14190). Cells were blocked in 3% BSA/PBS and incubated with primary antibody (E-cadherin, Santa Cruz #sc21791 and Vimentin, Chemicon #AB5733) diluted in blocking buffer for two hours at room temperature. Cells were washed and incubated in secondary antibody (Invitrogen #A11029 and Chemicon #AP194R) followed by nuclear counterstain TO-PRO3 (Invitrogen #T3605). Coverslips were mounted on slides with Pro-Long Gold anti-fade reagent (Invitrogen P36934). Images were captured on a Leica DMRXE microcope with SP2 scanner using Leica Confocal Software.

H358 cells [2] = assay: Induction of EMT in H358 cells by growth factors and cytokines (immunoblot of EMT biomarkers); type: cell-based, human; settings: seven day treatment of H358
Procedure: The human line H358 was cultured in the appropriate ATCC recommended supplemented media. Growth factor and cytokine induced EMT was monitored over a 7-14 day period. […]
Cell lines were treated as indicated in the text and figure legends. […] Protein concentration was determined by micro-BCA assay (Pierce, #23227). […]

B1: OSM: oncostatin M (R&D Systems #295-OM) (protein, UniProt P13725 26-221, looked up)
Oncostatin-M: AAIGSCSKEYRVLLGQLQKQTDLMQDTSRLLDPYIRIQGLDVPKLREHCRERPGAFPSEETLRGLGRRGFLQTLNATLGCVLHRLADLEQRLPKAQDLERSGLNIEDLEKLQMARPNILGLRNNIYCMAQLLDNSDTAEPTKAGRGASQPPTPTPASDAFQRKLEGCRFLHGYHRFMHSVGRVFSKWGESPNRSRR
extent of EMT at the single cell level (E-cadherin and vimentin expression and localization) (H358 cells [1]): partial EMT | E-cadherin repression or vimentin induction as single agents (H358 cells [2]): neither HGF or OSM as single agents produced significant

Reference: patent publication US7951549B2, “Methods for the identification of agents that inhibit mesenchymal-like tumor cells or their formation” (OSI Pharmaceuticals, Inc., priority 2008, dated 2011)
